Assay [1] concerns the target T1, recombinant toxin B fragment 1 (Clostridium difficile, UniProt P18177 1-546). Put plainly: ELISA, coated antigen, antibody at 0.5 ug/ml, OD405 at 15 min.
Assay [2] concerns the target T2, Clostridium difficile toxin B (whole toxin B) (Clostridium difficile).
T2 construct: also called TcdB; tcdB
Put plainly: biolayer interferometry (Octet QKe); biotinylated antibody on streptavidin sensor, toxin B 50-0.78 nM.

Assay [3] concerns the target T2, Clostridium difficile toxin B (whole …). Description: BLI (Octet QKe), mAb on SA sensor, toxin B analyte, model 1:1.
Assay [4] has the same target. Put plainly: cell-based or functional assay.
For assay [5] the target is unchanged. Put plainly: BLI (Octet QKe), mAb on SA sensor, toxin B analyte, model 1:1; head prints KD (nM) but Kdis/Kon gives this number in M.
Assay [6] has the same target. Description: BLI (Octet QKe), mAb from CHOK1SV, toxin B; column kdis2 (1/s).
The target is the same in assay [7]. Put plainly: BLI (Octet QKe), mAb on AHC sensor, toxin B analyte, model 2:1; head prints KD (nM) but Kdis/Kon gives this number in M.
Assay [8] shares this target. Description: BLI (Octet QKe), mAb on AHC sensor, toxin B analyte, model 2:1.
Assay [9] shares this target. Description: BLI (Octet QKe), mAb on SA sensor, toxin B analyte, model 2:1.
Assay [10] addresses T3, recombinant toxin B fragment 4 (Clostridium difficile, UniProt P18177 1777-2366). Put plainly: ELISA, coated antigen, mAb 0.1-1 µg/ml (FIG. 1).
Assay [11] has as its target T2, Clostridium difficile toxin B (whole …). Put plainly: cell-based or functional assay. This is another data set of the same source.
In the next assay the target is T4, bovine serum albumin (bovine, UniProt P02769 25-607).
T4 construct: also called BSA; commercial BSA
Description: Western blot (FIGS. 4-6).

In assay [12] the target is T1, recombinant toxin B fragment 1. Put plainly: Western blot, 5 ug protein per lane, mAb at 5 ug/ml.
Assay [13] deals with T5, Clostridium difficile toxin A (whole toxin A) (Clostridium difficile, UniProt P16154 1-2710).
T5 construct: mature; also called TcdA
Description: ELISA on coated whole toxin A (FIG. 1).

Assay [14] addresses T3, recombinant toxin B fragment 4. Put plainly: ELISA, coated antigen, antibody at 0.5 ug/ml, OD405 at 15 min.
Assay [15] addresses T1, recombinant toxin B fragment 1. Put plainly: Western blot, 2 ug protein per lane, mAb at 2 ug/ml.
Assay [16] shares this target. The assay is described as above. The source holds these as a separate data set.
The target in assay [17] is T2, Clostridium difficile toxin B (whole …). Description: BLI (Octet QKe), mAb on SA sensor, toxin B analyte, model 2:1, first of three rows.
For assay [18] the target is unchanged. Put plainly: BLI (Octet QKe), mAb on SA sensor, toxin B analyte, model 2:1, third of three rows.
Assay [19] addresses T3, recombinant toxin B fragment 4. Description: Western blot, 2 ug protein per lane, mAb at 2 ug/ml.

T3 sequence (P18177 1777-2366 limits assumed): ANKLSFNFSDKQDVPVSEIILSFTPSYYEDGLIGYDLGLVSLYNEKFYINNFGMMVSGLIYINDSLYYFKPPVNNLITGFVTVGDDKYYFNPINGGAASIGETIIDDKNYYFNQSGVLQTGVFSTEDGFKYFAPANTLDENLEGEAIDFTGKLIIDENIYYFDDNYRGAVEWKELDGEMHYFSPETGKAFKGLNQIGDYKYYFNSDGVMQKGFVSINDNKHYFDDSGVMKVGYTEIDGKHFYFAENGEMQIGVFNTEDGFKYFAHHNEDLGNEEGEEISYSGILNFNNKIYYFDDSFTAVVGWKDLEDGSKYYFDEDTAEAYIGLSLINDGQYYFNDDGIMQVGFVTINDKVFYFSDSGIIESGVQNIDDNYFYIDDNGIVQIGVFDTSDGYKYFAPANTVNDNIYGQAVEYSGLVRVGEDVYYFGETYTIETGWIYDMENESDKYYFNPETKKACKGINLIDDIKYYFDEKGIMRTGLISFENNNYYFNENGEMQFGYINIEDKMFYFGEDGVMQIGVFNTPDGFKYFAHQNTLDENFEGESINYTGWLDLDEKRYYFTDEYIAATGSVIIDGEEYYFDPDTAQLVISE
T1 sequence (P18177 1-546 limits assumed): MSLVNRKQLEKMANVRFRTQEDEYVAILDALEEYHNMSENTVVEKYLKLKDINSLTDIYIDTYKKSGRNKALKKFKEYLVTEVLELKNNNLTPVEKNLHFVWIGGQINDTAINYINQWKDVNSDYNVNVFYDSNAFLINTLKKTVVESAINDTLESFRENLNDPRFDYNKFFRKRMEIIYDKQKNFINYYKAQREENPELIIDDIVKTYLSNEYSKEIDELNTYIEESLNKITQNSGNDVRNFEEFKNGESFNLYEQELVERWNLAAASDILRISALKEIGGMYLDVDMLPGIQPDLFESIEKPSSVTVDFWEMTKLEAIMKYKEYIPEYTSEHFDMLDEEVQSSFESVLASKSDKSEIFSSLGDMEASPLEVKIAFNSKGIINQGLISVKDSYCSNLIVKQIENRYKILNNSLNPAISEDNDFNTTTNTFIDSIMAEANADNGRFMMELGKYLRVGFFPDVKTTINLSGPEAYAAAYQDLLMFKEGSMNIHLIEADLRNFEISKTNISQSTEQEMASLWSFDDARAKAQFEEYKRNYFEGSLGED
T4 sequence (P02769 25-607 limits assumed): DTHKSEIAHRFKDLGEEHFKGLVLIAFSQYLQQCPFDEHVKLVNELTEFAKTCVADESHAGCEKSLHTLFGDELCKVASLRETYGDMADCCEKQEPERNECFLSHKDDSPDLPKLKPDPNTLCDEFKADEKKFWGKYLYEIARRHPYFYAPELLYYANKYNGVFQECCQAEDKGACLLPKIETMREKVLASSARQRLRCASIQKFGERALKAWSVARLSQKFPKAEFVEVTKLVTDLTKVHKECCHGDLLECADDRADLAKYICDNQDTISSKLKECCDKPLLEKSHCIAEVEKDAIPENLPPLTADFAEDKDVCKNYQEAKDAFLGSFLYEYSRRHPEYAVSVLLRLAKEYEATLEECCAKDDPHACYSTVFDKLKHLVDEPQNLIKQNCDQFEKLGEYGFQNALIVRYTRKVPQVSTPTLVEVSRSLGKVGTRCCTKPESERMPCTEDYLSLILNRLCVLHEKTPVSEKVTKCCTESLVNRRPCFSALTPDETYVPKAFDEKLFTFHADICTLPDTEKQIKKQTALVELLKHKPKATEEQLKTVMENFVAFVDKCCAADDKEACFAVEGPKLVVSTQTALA
T5 sequence (P16154 whole entry): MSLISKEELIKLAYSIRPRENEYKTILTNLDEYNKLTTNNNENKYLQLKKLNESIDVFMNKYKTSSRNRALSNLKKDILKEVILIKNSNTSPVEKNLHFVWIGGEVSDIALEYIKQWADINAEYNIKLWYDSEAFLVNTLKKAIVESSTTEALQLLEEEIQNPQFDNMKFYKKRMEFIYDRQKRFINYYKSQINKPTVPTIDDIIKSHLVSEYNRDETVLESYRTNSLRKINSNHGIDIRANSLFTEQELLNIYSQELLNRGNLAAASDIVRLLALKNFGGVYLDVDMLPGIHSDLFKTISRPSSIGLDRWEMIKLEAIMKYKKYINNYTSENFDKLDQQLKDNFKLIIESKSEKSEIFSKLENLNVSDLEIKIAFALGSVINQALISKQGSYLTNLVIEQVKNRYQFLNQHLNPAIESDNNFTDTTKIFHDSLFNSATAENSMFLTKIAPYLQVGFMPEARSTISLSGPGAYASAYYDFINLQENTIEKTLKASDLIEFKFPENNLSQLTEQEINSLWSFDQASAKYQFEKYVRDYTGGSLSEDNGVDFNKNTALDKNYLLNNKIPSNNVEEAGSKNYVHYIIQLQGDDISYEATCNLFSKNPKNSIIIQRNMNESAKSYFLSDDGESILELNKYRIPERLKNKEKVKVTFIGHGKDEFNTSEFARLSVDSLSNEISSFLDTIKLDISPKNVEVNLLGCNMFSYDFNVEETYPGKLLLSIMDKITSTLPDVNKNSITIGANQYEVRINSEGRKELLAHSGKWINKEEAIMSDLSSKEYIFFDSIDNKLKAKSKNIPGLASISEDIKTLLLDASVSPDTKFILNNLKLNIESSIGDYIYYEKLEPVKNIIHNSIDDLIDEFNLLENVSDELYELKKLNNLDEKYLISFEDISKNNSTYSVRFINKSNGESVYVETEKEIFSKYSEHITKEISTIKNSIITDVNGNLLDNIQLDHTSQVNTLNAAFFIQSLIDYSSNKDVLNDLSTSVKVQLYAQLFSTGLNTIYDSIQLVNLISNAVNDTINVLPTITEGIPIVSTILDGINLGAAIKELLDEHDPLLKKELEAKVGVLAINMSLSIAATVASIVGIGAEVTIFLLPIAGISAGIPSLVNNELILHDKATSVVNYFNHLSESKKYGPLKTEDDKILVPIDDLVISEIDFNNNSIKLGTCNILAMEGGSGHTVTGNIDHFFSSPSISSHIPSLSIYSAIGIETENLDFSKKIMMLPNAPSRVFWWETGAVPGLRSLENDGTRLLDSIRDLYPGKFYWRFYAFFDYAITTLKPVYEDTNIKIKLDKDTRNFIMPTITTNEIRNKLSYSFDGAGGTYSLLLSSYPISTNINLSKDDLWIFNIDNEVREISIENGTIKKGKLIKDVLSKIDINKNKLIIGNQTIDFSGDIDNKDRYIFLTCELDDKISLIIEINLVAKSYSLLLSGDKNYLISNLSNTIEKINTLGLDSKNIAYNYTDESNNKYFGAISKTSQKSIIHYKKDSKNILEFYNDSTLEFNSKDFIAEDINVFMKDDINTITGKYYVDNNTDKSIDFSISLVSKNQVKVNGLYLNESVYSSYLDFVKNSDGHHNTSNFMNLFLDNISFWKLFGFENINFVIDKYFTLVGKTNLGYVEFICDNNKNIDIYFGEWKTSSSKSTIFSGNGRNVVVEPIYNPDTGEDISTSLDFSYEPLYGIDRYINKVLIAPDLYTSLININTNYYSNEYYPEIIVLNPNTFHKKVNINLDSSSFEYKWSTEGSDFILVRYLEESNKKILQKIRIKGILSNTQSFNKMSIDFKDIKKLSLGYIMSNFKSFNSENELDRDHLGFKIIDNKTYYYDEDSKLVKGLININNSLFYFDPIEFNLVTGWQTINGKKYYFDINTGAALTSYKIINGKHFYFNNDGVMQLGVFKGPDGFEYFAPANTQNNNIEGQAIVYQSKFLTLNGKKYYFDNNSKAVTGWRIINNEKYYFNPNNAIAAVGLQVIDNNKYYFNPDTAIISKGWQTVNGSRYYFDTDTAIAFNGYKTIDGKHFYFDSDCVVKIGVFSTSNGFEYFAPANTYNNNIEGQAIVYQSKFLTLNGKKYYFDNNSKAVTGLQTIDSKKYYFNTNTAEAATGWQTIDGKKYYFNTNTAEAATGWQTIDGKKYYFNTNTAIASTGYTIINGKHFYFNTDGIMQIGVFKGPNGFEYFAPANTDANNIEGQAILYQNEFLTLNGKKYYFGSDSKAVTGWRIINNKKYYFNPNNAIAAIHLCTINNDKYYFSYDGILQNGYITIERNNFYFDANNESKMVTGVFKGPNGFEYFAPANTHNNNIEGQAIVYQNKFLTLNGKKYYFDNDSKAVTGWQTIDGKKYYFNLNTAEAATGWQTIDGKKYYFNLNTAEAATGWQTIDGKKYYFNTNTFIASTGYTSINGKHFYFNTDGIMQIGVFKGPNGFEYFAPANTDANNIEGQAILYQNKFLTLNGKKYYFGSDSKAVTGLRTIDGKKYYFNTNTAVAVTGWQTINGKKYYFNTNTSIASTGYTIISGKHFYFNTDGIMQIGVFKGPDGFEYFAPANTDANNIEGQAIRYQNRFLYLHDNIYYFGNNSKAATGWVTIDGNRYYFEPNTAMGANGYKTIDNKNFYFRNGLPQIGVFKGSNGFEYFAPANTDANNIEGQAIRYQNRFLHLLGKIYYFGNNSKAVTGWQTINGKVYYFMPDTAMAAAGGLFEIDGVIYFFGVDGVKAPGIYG

B1: CAN33G1 (antibody, V domains shown)
VH: EVQLQQSGPDLVKPGASVKISCKASGYSFTGYYMHWVKQSHGKSLEWIGRVNPYNGDTNYNQNFKDKAILTVDKSASTAYMEFRSLTSEDSAVYYCTRSNWENYFDYWGQGSTLTVSS
VL: DIQLTQSSSSFSVSLGDRVTITCKASEDIYNRLAWYQQRPGNAPRLLISGATSLETGIPSRFSGSGSGKEYTLSIASLQTEDFVTYYCQQYWNIPTFGGGTRLEIK
notes: also called murine CAN33G1; CAN33 mAb
As to B1, in assay [1], the binding result is given as “no binding (tested: 0.5 ug/ml)”. In assay [2], this molecule displayed a Kd of 10.9 nM, a koff of 0.000591 s⁻¹ and a kon of 54400 M⁻¹ s⁻¹.

B2: rehuCAN46G19 (antibody, V domains shown)
VH: EVQLVQSGAEVVKPGESVKISCKASGYSFTGYYIHWVKQTPGQSLEWVGRIFPYNGAASYNQNFKGKATLTVDKSTTTAYMELSSLRSEDSAVYFCARWLRVYFDYWGQGTTLTVSS
VL: ENVLTQSPSSMSASVGDRVTMTCSASSSVTYMHWYQQKPGKSPKLWIYETSKLASGVPSRFSGSGSGNDYSLTISSMQPEDVATYYCFQGSGYPFTFGQGTKLEIK
In assay [3], B2 registered a koff of 0.00021 s⁻¹ and a kon of 1.36e+06 M⁻¹ s⁻¹. Further, the “antibody concentration giving 100% neutralization of toxin B on CT-26 cells, mAb from CHO (FIG. 25)” value in assay [4] was roughly 0.3 µg/mL. This molecule had a Kd in assay [5] of 0.154 nM.

B3: rehuCAN46G24 (antibody, V domains shown)
VH: EVQLVQSGAEVVKPGESVKISCKASGYSFTGYYIHWVKQTPGQSLEWVGRIFPYNGAASYNQNFKGKATLTVDKSTSTAYMELSSLRSEDSAVYFCARWLRVYFDYWGQGTTLTVSS
VL: EIVLTQSPSSMSTSVGDRVTMSCSASSSVTYMHWYQQKPGKSPKLWIYETSKLASGVPSRFSGSGSGNDYSLTISSMQPEDVATYYCFQGSGYPFTFGQGTKLEIK
As for B3, the “antibody concentration giving 100% neutralization of toxin B on CT-26 cells, mAb from CHO (FIG. 25)” value in [4] is roughly 0.3 µg/mL. In assay [6], the koff was found to be 1.2e-05 s⁻¹.

B4: huCAN46G19 (antibody, V domains shown)
VH: EVQLVQSGAEVKKPGESVKVSCKASGYSFTGYYIHWVKQAPGQGLEWVGRIFPYNGAASYNQNFKGKATLTVDKSSTTAYMELSSLRSEDTAVYFCARWLRVYFDYWGQGTTVTVSS
VL: ENVLTQSPSSLSASVGDRVTITCSASSSVTYMHWYQQKPGKAPKLWIYETSKLASGVPGRFSGSGSGNSYTFTISSLQPEDIATYYCFQGSGYPFTFGQGTKVEIK
notes: also called HuCAN46G19-3-2
In [7], B4 came in with a Kd of 0.178 nM.

B5: huCAN46G4 (antibody, V domains shown)
VH: EVQLLQSGAEVKKPGSSVKISCKASDYSFTGYYMHWVKQAPGQGLEWIGRIFPYNGAASYNQNFKDKATLTVDKSSSTAYMELHSLRSEDTAVYYCTRWLRVYFDYWGQGTLVTVSS
VL: EKVLTQSPATLSLSPGERATMTCSASSSVSYMHWYQQKPGTSPKLWIYETSKLAFGVPARFSGSGSGNSYSLTISSLEPEDFAVYYCFQGSGYPFTFGQGTRLEIK
For the molecule B5, in assay [8], the koff amounted to 0.000754 s⁻¹ and the kon came to 2.12e+06 M⁻¹ s⁻¹. In assay [9], the koff is 0.000928 s⁻¹ and the kon came out at 590000 M⁻¹ s⁻¹.

B6: rehuCAN46G4 (antibody, V domains shown)
VH: EVQLLQSGAEVVKPGSSVKISCKASGYSFTGYYMHWVKQAPGQGLEWIGRIFPYNGAASYNQNFKDKATLTADKSTNTAYMELSSLRSEDSAVYYCTRWLRVYFDYWGQGTLVTVSS
VL: EKVLTQSPATLSASPGERVTMSCSASSSVSYMHWYQQKPGQSPKLWIYETSKLAFGVPARFSGSGSGTDYSLTISSMEPEDFATYYCFQGSGYPFTFGQGTRLEIK
In the case of B6, in assay [3], the koff came to 0.000235 s⁻¹ and the kon turned out to be 590000 M⁻¹ s⁻¹. Also, in assay [5], the Kd amounted to 0.399 nM.

B7: CAN46G24 (antibody, V domains shown)
VH: EVQLLQSGPELVKPGTSVKISCKASGYSFTGYYIHWVKQTHVKSLEWVGRIFPYNGAASYNQNFKGKATLTVDKSSSTAYMELHSLTSEDSAVYFCARWLRVYFDYWGQGTTLTVSS
VL: EIVLTQSPAIMSTSPGEKVTMSCSASSSVTYMHWYQQKSITSPKLWIYETSKLASGVPGRFSGSGSGNSYSLTISSMEAEDVATYYCFQGSGYPFTFGSGTKLEIK
notes: also called CAN46G24-2-3; murine CAN46G24
Take B7: the binding result is “binds” in [10], “no binding (tested: 2 µg/ml to 5 µg/ml)” with bovine serum albumin, “no binding (tested: 5 ug/ml)” in [12] and “no binding (tested: 0.1 µg/ml to 1 µg/ml)” in [13]. The “Mean EC50, neutralization of TcdB on HT-29 cells (xCELLigence)” value (“Mean EC50, neutralization of TcdB” below) in assay [11] came to 44.2 µg/mL. Moreover, the Kd in assay [2] came to 1.89 nM. Moreover, the koff in [2] turned out to be 0.00028 s⁻¹. Also, the kon in assay [2] was 149000 M⁻¹ s⁻¹.

B8: CAN46G13 (antibody, V domains shown)
VH: EVQLLQSGPELVKPGTSVKISCKASGYSFTGYYIHWVKQTHVKSLEWVGRIFPYNGAASYNQNFKGKATLTVDKSSSTAYMELHSLTSEDSAVYFCARWLRVYFDYWGQGTTLTVSS
VL: EIVLTQSPAIMSTSPGEKVTMSCSASSSVTYMHWYQQKSITSPKLWIYETSKLASGVPGRFSGSGSGNSYSLTISSMEAEDVATYYCFQGSGYPFTFGSGTKLEIK
notes: also called CAN46G13-1-5; murine CAN46G13
Consider B8, for which the binding result in assay [14] is reported as “binds”; with bovine serum albumin, “no binding (tested: 2 µg/ml to 5 µg/ml)”; in [15] it was “no binding (tested: 2 ug/ml)”; in assay [13] it was “no binding (tested: 0.1 µg/ml to 1 µg/ml)”. In addition, the “Mean EC50, neutralization of TcdB” value in [11] worked out at 136 µg/mL. Besides, the Kd in [2] came out at 1.17 nM. The koff in assay [2] worked out at 0.000149 s⁻¹. Besides, in assay [2], the kon was found to be 128000 M⁻¹ s⁻¹.

B9: CAN46G4 (antibody, V domains shown)
VH: EVQLLQSGPELVKPGASVKISCKASDYSFTGYYMHWVKQSHVKSLEWIGRIFPYNGAASYNQNFKDKATLTVDKSSSTAYMELHSLTSEDSAVYYCTRWLRVYFDYWGQGTTLTVSS
VL: EKVLTQSPAIMSASPGEEVTMTCSASSSVSYMHWYQQKSSTSPKLWIYETSKLAFGVPGRFSGSGSGNSYSLTISSMEAEDVATYYCFQGSGYPFTFGSGTKLEVK
notes: also called CAN46G4-1-2; murine CAN46G4
Regarding B9, the binding result in assay [16] is given as “no binding (tested: 2 ug/ml)”; in [10], “binds”; with bovine serum albumin, “no binding (tested: 2 µg/ml to 5 µg/ml)”; in assay [13], “no binding (tested: 0.1 µg/ml to 1 µg/ml)”. In addition, the “Mean EC50, neutralization of TcdB” value in [11] amounted to 142 µg/mL. The molecule further returned a Kd in assay [2] of 1.41 nM. This molecule displayed a koff in assay [2] of 0.000101 s⁻¹. Moreover, the kon in [2] was determined as 71800 M⁻¹ s⁻¹.

B10: CAN46G19 (antibody, V domains shown)
VH: EVQLLQSGPELVKPGTSVKISCKASGYSFTGYYIHWVKQTHVKSLEWVGRIFPYNGAASYNQNFKGKATLTVDKSSTTAYMELHSLTSEDSAVYFCARWLRVYFDYWGQGTTLTVSS
VL: ENVLTQSPTIMSASPGEEVTMTCSASSSVTYMHWYQQKSITSPKLWIYETSKLASGVPGRFSGSGSGNSYSLTISSMEAEDVATYYCFQGSGYPFTFGSGTKLEIK
notes: also called CAN46G19-3-2; murine CAN46G19
Consider B10, for which the binding result in [16] was “no binding (tested: 2 ug/ml)”; in assay [10] it was “binds”; in the assay with bovine serum albumin it was “no binding (tested: 2 µg/ml to 5 µg/ml)”; in assay [13] it was “no binding (tested: 0.1 µg/ml to 1 µg/ml)”. Further, the “Mean EC50, neutralization of TcdB” value in assay [11] was 142 µg/mL. The Kd in [2] was 1.27 nM. The molecule also yielded a koff in assay [2] of 0.000145 s⁻¹. Besides, in assay [2], the kon worked out at 114000 M⁻¹ s⁻¹.

B11: CAN46G13a (antibody, V domains shown)
VH: DVQLQESGPGLVKPSQSLSLTCTVTGYSITSDSAWNWIRQFPGNNLEWMGYISYSGSTSYNPSLKSRISITRDTSKNQFFLQLNSVTTEDTATYYCARRSRVSFYFDYWGQGTTLTVSS
VL: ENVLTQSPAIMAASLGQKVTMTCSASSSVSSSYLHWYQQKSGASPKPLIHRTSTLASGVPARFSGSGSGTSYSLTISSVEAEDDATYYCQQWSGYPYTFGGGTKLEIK
notes: also called CAN46G13-1-8; murine CAN46G13a
On to B11, for which the koff in assay [17] was determined as 0.00357 s⁻¹; in assay [18], 0.00598 s⁻¹; in assay [2] it was 0.00693 s⁻¹. Moreover, the kon was 678000 M⁻¹ s⁻¹ in [17], 73700 M⁻¹ s⁻¹ in [18] and 808000 M⁻¹ s⁻¹ in [2]. Besides, the binding result is “no binding (tested: 2 µg/ml to 5 µg/ml)” with bovine serum albumin, “no binding (tested: 2 ug/ml)” in assay [19] and “no binding (tested: 0.1 µg/ml to 1 µg/ml)” in [13]. The molecule further came in with a Kd in assay [2] of 8.57 nM.
